Values of other authors, collected in patent US20220119510A1, “ANTI-POLYETHYLENE GLYCOL (PEG) ANTIBODY MOUSE MODEL FOR RIGOROUS ASSESSMENT OF PEG-BASED THERAPIES: ADJUVANT-FREE INDUCTION MODEL” (Northwestern University, priority 2020, published 2022).

Test system: rabbits

B1: PEGylated ovalbumin: PEGylated ovalbumin used to immunize rabbits (conjugate, UniProt P01012 2-386, looked up)
Ovalbumin: GSIGAASMEFCFDVFKELKVHHANENIFYCPIAIMSALAMVYLGAKDSTRTQINKVVRFDKLPGFGDSIEAQCGTSVNVHSSLRDILNQITKPNDVYSFSLASRLYAEERYPILPEYLQCVKELYRGGLEPINFQTAADQARELINSWVESQTNGIIRNVLQPSSVDSQTAMVLVNAIVFKGLWEKAFKDEDTQAMPFRVTEQESKPVQMMYQIGLFRVASMASEKMKILELPFASGTMSMLVLLPDEVSGLEQLESIINFEKLTEWTSSNVMEERKIKVYLPRMKMEEKYNLTSVLMAMGITDVFSSSANLSGISSAESLKISQAVHAAHAEINEAGREVVGSAEAGVDAASVSEEFRADHPFLFCIKHIATNAVLFFGRCVSP
modifications: PEGylated
notes: PEGylated ovalbumin used to immunize rabbits
In the case of B1, the “anti-PEG antibodies after immunization” value is given as “anti-PEG antibodies were first observed”.
